Experimental data: paper PMC11500106, “Characterization of Medusavirus encoded histones reveals nucleosome-like structures and a unique linker histone”

Target: eH1.0 (Mus musculus, UniProt P10922 1-194)
Experiment: fluorescence polarization; unit inferred from the titration (0-10 uM; fitted as EC50); FP: 20 mM Tris pH 7.5, 1 mM DTT, 1 mM EDTA, room temperature, 1 h, 10 nM DNA; reconstitution: salt-gradient dialysis 2 M to 50 mM NaCl
Conditions: protein: recombinant; label: 5' 6-FAM; only one strand printed (Results call it a 35-mer)

Chain of eH1.0 (P10922 whole entry): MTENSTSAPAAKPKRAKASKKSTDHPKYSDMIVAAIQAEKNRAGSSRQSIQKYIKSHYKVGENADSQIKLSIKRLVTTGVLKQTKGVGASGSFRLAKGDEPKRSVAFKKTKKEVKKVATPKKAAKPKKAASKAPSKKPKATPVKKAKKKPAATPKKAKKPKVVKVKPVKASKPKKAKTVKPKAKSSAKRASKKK

Q: With GCAGCTGGCACGACAGGTATGAATC (mixed) [FP 25-mer DNA] as the binder, how does the Kd read?
A: 18.1 nM
